Measurements as given in patent US20230184787.

Target: T1, full-length human calprotectin (heterodimer of S100A9 and S100A8), P06702
T1 chain 1: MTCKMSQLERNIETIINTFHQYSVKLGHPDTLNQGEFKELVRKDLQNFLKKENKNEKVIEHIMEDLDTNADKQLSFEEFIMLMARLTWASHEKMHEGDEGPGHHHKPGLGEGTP
T1 chain 2: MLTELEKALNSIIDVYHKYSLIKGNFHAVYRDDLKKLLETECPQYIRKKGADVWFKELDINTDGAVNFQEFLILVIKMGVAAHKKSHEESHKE

B1: human neutrophil elastase (protein)
chain: IVGGRRARPHAWPFMVSLQLRGGHFCGATLIAPNFVMSAAHCVANVNVRAVRVVLGAHNLSRREPTRQVFAVQRIFENGYDPVNLLNDIVILQLNGSATINANVQVAQLPAQGRRLGNGVQCLAMGWGLLGRNRGIASVLQELNVTVVTSLCRRSNVCTLVRGRQAGVCFGDSGSPLVCNGLIHGIASFVRGGCASGLYPDAFAPVAQFVNWIDSIIQ
calprotectin fragments identified by non-targeted mass spectrometry after in vitro cleavage: several neo-epitope containing calprotectin fragments were generated by HNE, from both the S100A9 and S100A8 proteins
